According to patent US20190160152A1 (OPKO BIOLOGICS LTD., priority 2016, published 2019):
Entries after “also recorded” stand apart in the source; their conditions may differ. Where two headings read alike, the source gives them in different places.

Tests used:
[1] = ob/ob mouse model Study 3: MOD-6031 vs PEG30-Fmoc-OXM vs PEG30-EMCS-OXM; assay type: in vivo, male ob/ob mice; conditions: for terminal plasma lipidic profiles and fructosamine (in words) / glucose profile, Day 30 OGTT (in words) / glucose tolerance, day 2 OGTT (in words): 6000 nmol/kg; for terminal plasma lipidic profiles and fructosamine (in words): day 33; for glucose profile, Day 30 OGTT (in words) / glucose tolerance, day 2 OGTT (in words): glucose 2 g/kg po
Experimental: Forty-two male ob/ob mice (7 weeks of age, Charles River, Italy) were acclimatized to the facility (10 days) followed by handling protocol whereby animals were handled as if to be dosed but were actually not weighed or dosed. Subsequently, animals underwent baseline period for 1 week in which each animal have been dosed twice by the subcutaneous route with PEG30-SH in volume of 20 ml/kg. Body weight, food and water intake were recorded daily, and samples were taken for non-fasting and fasting glucose measurements and non-fasting and fasting insulin measurements. Animals were subsequently allocated into three treatment, control and pair-fed groups (group A, N=10, groups B-E, N=8) based on plasma glucose, body weight and daily food and water intake. […] It was given the daily food ration equal to that eaten by its paired counterpart in group B the previous day. As such, animals in Group E will be one day out of phase with Group B in all study procedures and measurements. During the study, animals were dosed every four days (days: 1, 5, 9, 13, 17, 21, 25 and 29) as describes in table 3. […] Several procedures and sampling have been performed: non-fasting glucose on days 1, 6, 14, 22 and 29, fasting glucose on days 10, 18 and 26. On days 2 and 30 fasting glucose samples have been taken as part of an OGTT procedure, in which insulin was measured in parallel to glucose. Terminal samples on day 33 were analyzed for cholesterol, triglycerides and fructosamine.

[2] = ob/ob mouse model Study 1: PEG30-S-MAL-FMS-OXM variants at 2000 nmol/kg; assay type: in vivo, male ob/ob mice; conditions: 2000 nmol/kg sc; for final reduction of body weight (on day 18) compared to vehicle (PEG-SH) group: days 1, 5, 9, 13 and 16
Experimental: Terminal samples on day 19 were analyzed for cholesterol.

[3] = IP glucose tolerance test (IPGTT model); assay type: in vivo, C57BL/6 male mice; conditions: for AUC (0-180) / AUC (−60-180): blood glucose, 100 nmol/kg peptide content IP 15 min prior to glucose 1.5 gr/kg IP; for % AUC from control, AUC (0-180) / % AUC from control, AUC (−60-180): control PEG-SH, 100 nmol/kg peptide content IP
[4] = Syringability analysis (Instron, glide force); assay type: physicochemical; conditions: 25 Ga Needle; 9 in/min (16 sec)
Experimental: Syringeability was tested using an Instron instrument, model 5942. […] […] For each needle size, two speed rates were measured: 4.8 in/min and 9 in/min, which correspond to injection speeds of 1 ml per 30 sec and 16 sec, respectively.
In one case, acceptance criteria for syringability was set at <10 N (glide force). The results of syringability for two different formulations of an acetate based buffer and using three different gauge needles is presented in Table 29 below.

[5] = target: T1, dipeptidyl peptidase IV (DPPIV) (Homo sapiens, UniProt P27487)
T1 sequence (P27487 whole entry, species assumed): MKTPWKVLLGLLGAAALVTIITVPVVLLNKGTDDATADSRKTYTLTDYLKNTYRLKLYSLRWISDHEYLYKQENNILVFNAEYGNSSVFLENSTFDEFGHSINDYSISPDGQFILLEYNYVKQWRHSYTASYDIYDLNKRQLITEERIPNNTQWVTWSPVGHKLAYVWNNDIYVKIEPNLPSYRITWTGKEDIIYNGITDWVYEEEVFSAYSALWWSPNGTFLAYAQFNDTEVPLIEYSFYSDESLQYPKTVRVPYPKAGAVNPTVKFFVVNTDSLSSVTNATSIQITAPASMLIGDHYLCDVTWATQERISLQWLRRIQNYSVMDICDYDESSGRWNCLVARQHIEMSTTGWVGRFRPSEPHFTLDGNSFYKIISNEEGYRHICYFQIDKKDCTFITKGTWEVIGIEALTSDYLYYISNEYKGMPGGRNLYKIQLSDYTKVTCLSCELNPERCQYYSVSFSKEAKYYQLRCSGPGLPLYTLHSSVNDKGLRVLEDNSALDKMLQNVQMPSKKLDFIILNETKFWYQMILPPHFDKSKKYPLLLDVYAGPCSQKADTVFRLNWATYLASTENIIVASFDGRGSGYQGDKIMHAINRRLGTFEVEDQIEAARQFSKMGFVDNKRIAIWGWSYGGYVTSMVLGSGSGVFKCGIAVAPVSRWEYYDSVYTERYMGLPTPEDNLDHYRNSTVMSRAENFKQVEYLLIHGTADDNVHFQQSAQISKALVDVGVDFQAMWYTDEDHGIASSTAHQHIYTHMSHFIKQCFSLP

[6] = Ex-vivo hydrolysis rate of MOD-6031 in rat plasma; assay type: in vitro ADME
Experimental: (§1) After evaporation to dryness and reconstitution, the extracts were analysed by LC-MS/MS. […] Incubation at temperatures of 35° C., 37° C. and 41° C. was examined in rat plasma. […] For human plasma, both pooled and individual samples were measured using plasma derived from male and female subjects. […] The hydrolysis was stopped at the designated time point by freezing the sample at −70° C. […] For each condition, three independent samples were prepared. Samples were incubated at a given temperature of either 35° C., 37° C. or 41° C. All samples were stored at −70° C. prior to analysis. […] Temperature, wherein hydrolysis was tested at temperatures of 35° C., 37° C., and 41° C.; and • c. Plasma source, wherein hydrolysis was tested in plasma samples obtained from rat, cynomolgus monkeys and human. For human plasma, both pooled and individual samples were used, and hydrolysis rates were measured separately for plasma from males and females. […] At designated time points, samples were taken for LC-MS/MS analysis.

[7] = Ex-vivo hydrolysis rate of MOD-6031 in cynomolgus monkey plasma; assay type: in vitro ADME
Experimental: as §1

[8] = Hydrolysis rate of MOD-6031 in phosphate buffer at different pH; assay type: physicochemical
[9] = Ex-vivo hydrolysis rate of MOD-6031 in human plasma; assay type: in vitro ADME
Experimental: as §1

[10] = ob/ob mouse model Study 2: chronic MOD-6031, OXM, liraglutide pharmacology; assay type: in vivo, male ob/ob mice
Experimental: Body weight, food and water intake were recorded daily. […] Body weight, food and water intake were measured daily.

[11] = Viscosity analysis (Brookfield rheometer); assay type: physicochemical
Experimental: Viscosity was measured with a Brookfield rheometer (DV-III Ultra). For each formulation, viscosity was obtained from the average of five shear rate (Sec^−1) readouts (15.0, 30.0, 45.0, 60.0 and 75.0) at a controlled temperature of 25° C. Processing of the data was done using Rheocalc® software (Brookfield).
Conditions included concentration, buffer type, pH, and NaCl. Buffers were formed by interaction of base part of the buffer and the trifluoro acetic acid (TFA) that co-eluted with the […] (DS). […]

[12] = target: T1, dipeptidyl peptidase IV (DPPIV); assay: DPPIV digestion assay by RP-HPLC; conditions: pH = 6
[13] = mouse, in vivo, sc
[14] = 6000 nmol/kg sc every four days
[15] = Monkey (lot# CYN128421) plasma 37° C.
[16] = Monkey (lot# CYN128423) plasma 37° C.
[17] = Human female (pool) plasma 37° C.
[18] = Human male (pool) plasma 37° C.

## PEG30-Fmoc-OXM (HSQGTFTSDYSKYLDSRRAQDFVQWLMNTKRNRNNIA; Oxyntomodulin PEG30 via Fmoc linker; UniProt P01275 53-89, looked up)
[1]; [14]
  Final reduction changes in body weight (on day 33) compared to control (PEG-SH): 5.1%
  fasting glucose (in words): significant improvement
[1]; 6000 nmol/kg sc every four days, insignificant
  reduction change in body weight compared to its pair-fed group: 2.6%
[1]
  terminal plasma lipidic profiles and fructosamine (in words): significant reduction
  glucose profile, Day 30 OGTT (in words): significant improved glucose profile
  glucose tolerance, day 2 OGTT (in words): significantly improved glucose tolerance

## MOD-6030: heterogeneous mixture of PEG-S-MAL-FMS-OXM conjugate composed of three variants (N-terminal, Lys12 and Lys30) (HSQGTFTSDYSKYLDSRRAQDFVQWLMNTKRNRNNIA; Oxyntomodulin PEG30-S-MAL-FMS, mixed N-term/Lys12/Lys30; UniProt P01275 53-89, looked up)
[2]
  final reduction of body weight (on day 18) compared to vehicle (PEG-SH) group: 4.7%
[3]
  AUC (0-180): 13541
  AUC (−60-180): 18200
  % AUC from control, AUC (0-180): 60.1%
  % AUC from control, AUC (−60-180): 67.8%

## certolizumab pegol [Cimzia]
[4]
  Break Loose Force: 6.28 N
  Glide Force: 27.94 N

## PEG30-EMCS-OXM: non-reversible form where N-(epsilon-Maleimidocaproyloxy)succinimide (EMCS) replaces Fmoc as linker
[1]; [14]
  Final reduction changes in body weight (on day 33) compared to control (PEG-SH): 2.4%
[5]
  degradation by DPPIV (in words): no degradation of the conjugates was observed

## MOD-6031
[1]; [14]
  Final reduction changes in body weight (on day 33) compared to control (PEG-SH): 25.4%
  fasting glucose (in words): significant improvement
  non-fasting glucose (in words): significant improvement
[1]
  terminal plasma lipidic profiles and fructosamine (in words): significant reduction
  glucose profile, Day 30 OGTT (in words): significant improved glucose profile
  glucose tolerance, day 2 OGTT (in words): significantly improved glucose tolerance
[6]; Table 10, Rat plasma 35° C.
  Cl/F_obs: 0.120 (mg)/(μg/ml)/h
  MRT0-∞: 14.7 h
[6]; Table 10, Rat plasma 37° C.
  Cl/F_obs: 0.129 (mg)/(μg/ml)/h
  MRT0-∞: 14.7 h
[6]; Table 10, Rat plasma 41° C.
  Cl/F_obs: 0.179 (mg)/(μg/ml)/h
  MRT0-∞: 9.6 h
[6]; Table 11, Rat plasma 37° C.
  Cl/F_obs: 0.056 (mg)/(μg/ml)/h
  MRT0-∞: 13 h
[6]; rat plasma, 41° C. compared with 35° C. or 37° C.
  hydrolysis rate, effect of temperature (in words): incubation at 41 °C resulted in a higher hydrolysis rate
[2]
  ability to reduce weight, inhibit food intake and improve glycemic control (in words): superior efficacies
  non-fasting glucose (in words): improvement of non-fasting glucose
  final reduction of body weight (on day 18) compared to vehicle (PEG-SH) group: 4.9%
[3]; IPGTT, compared to vehicle PEG-SH
  glucose tolerance (in words): slightly less potent
[3]
  AUC (0-180): 15781
  AUC (−60-180): 19891
  % AUC from control, AUC (0-180): 70.1%
  % AUC from control, AUC (−60-180): 74.1%
[7]; [15]
  Cl/F_obs: 0.172 (mg)/(μg/ml)/h
  MRT0-∞: 5 h
[7]; [16]
  Cl/F_obs: 0.043 (mg)/(μg/ml)/h
  MRT0-∞: 15 h
[8]; Phosphate pH = 6.8
  Cl/F_obs: 0.061 (mg)/(μg/ml)/h
  MRT0-∞: 47.4 h
[8]; Phosphate pH = 7.4
  Cl/F_obs: 0.133 (mg)/(μg/ml)/h
  MRT0-∞: 20.3 h
[8]; Phosphate pH = 7.8
  Cl/F_obs: 0.227 (mg)/(μg/ml)/h
  MRT0-∞: 10.7 h
[9]; [17]
  Cl/F_obs: 0.102 (mg)/(μg/ml)/h
  MRT0-∞: 9 h
[9]; Human female A plasma 37° C.
  Cl/F_obs: 0.125 (mg)/(μg/ml)/h
  MRT0-∞: 8 h
[9]; Human female B plasma 37° C.
  Cl/F_obs: 0.136 (mg)/(μg/ml)/h
  MRT0-∞: 9 h
[9]; Human female C plasma 37° C.
  Cl/F_obs: 0.143 (mg)/(μg/ml)/h
  MRT0-∞: 7 h
[9]; [18]
  Cl/F_obs: 0.064 (mg)/(μg/ml)/h
  MRT0-∞: 14 h
[9]; Human male A plasma 37° C.
  Cl/F_obs: 0.133 (mg)/(μg/ml)/h
  MRT0-∞: 8 h
[9]; Human male B plasma 37° C.
  Cl/F_obs: 0.148 (mg)/(μg/ml)/h
  MRT0-∞: 7 h
[9]; Human male C plasma 37° C.
  Cl/F_obs: 0.146 (mg)/(μg/ml)/h
  MRT0-∞: 7 h
[9]; rat, cynomolgus monkey and human plasma, 37° C.
  hydrolysis rate in different plasma types (in words): comparable hydrolysis rate in most of the plasma samples; also recorded: very similar
[10]; 1000 nmol/kg sc twice a week
  body weight reduction at the conclusion of the study (day 33): 5.2%
[10]; 3000 nmol/kg sc twice a week
  body weight reduction at the conclusion of the study (day 33): 12.3%
[10]; 3000 nmoles/kg twice a week
  body weight and food consumption (in words): significantly reduced
[10]; 6000 nmol/kg sc twice a week
  body weight reduction at the conclusion of the study (day 33): 28.3%
[10]; 6000 nmol/kg twice a week
  food intake and body weight (in words): significantly reduced
[10]; 1000, 3000 and 6000 nmoles/kg, glucose 2 g/kg po
  glucose tolerance, OGTT days 2 and 30 (in words): significantly and dose-dependently improved
[10]; day 33
  terminal cholesterol (in words): dose-dependently reduced
[10]; study termination, day 33
  terminal glucose (in words): dose-dependently reduced
  terminal plasma insulin (in words): markedly reduced
[11]; 100 mM Acetate, 100 mM Sucrose, pH 4.7, 66 mg/ml
  Viscosity: 20.41 cp
[11]; 100 mM Acetate, 100 mM Sucrose, pH 4.7, 72 mg/ml
  Viscosity: 23.91 cp
[11]; 100 mM Acetate, 100 mM Sucrose, pH 4.7, 77 mg/ml
  Viscosity: 26.08 cp
[11]; 100 mM Acetate, 100 mM Sucrose, pH 4.7, 80 mg/ml
  Viscosity: 30.02 cp
[11]; 100 mM Acetate, 100 mM Sucrose, pH 4.7, concentration 60 mg/ml (A280)
  Viscosity: 17.48 cp
[11]; T = 0, 50 mM Acetate pH 4.7, 60 mg/mL
  Viscosity: 19.7 cP
[11]; T = 0, 50 mM Acetate pH 4.7, 70 mg/mL
  Viscosity: 29.2 cP
[11]; T = 0, 50 mM Acetate pH 4.7, 80 mg/mL
  Viscosity: 43.6 cP
[11]; T = 0, 50 mM Acetate pH 4.7, 100 mg/mL
  Viscosity: 79.2 cP
[11]; T = 0, 50 mM Acetate pH 4.7, theoretical concentration 50 mg/mL
  Viscosity: 12.9 cP
[11]; T = 0, 100 mM Acetate pH 4.7, 50 mg/mL
  Viscosity: 12.9 cP
[11]; T = 0, 100 mM Acetate pH 4.7, 60 mg/mL
  Viscosity: 20.8 cP
[11]; T = 0, 100 mM Acetate pH 4.7, 70 mg/mL
  Viscosity: 32.9 cP
[11]; T = 0, 100 mM Acetate pH 4.7, 80 mg/mL
  Viscosity: 48.7 cP
[11]; T = 0, 100 mM Acetate pH 4.7, 100 mg/mL
  Viscosity: 87.4 cP
[11]; T = 24 hrs, 50 mM Acetate pH 4.7, 50 mg/mL
  Viscosity: 12.2 cP
[11]; T = 24 hrs, 50 mM Acetate pH 4.7, 60 mg/mL
  Viscosity: 19.4 cP
[11]; T = 24 hrs, 50 mM Acetate pH 4.7, 70 mg/mL
  Viscosity: 28.3 cP
[11]; T = 24 hrs, 100 mM Acetate pH 4.7, 50 mg/mL
  Viscosity: 12.8 cP
[11]; T = 24 hrs, 100 mM Acetate pH 4.7, 60 mg/mL
  Viscosity: 20.4 cP
[11]; T = 24 hrs, 100 mM Acetate pH 4.7, 70 mg/mL
  Viscosity: 32.5 cP
[12]
  degradation by DPPIV (in words): no degradation of OXM was observed
[13]; 1000 nmol/kg
  Plasma concentration 24 hours following last injection of repeat dosing regimen (Day 33): 67.51 µg/mL
  Plasma concentration 24 hours following single dose (Day 2): 51.57 µg/mL
[13]; 3000 nmol/kg
  Plasma concentration 24 hours following single dose (Day 2): 183.33 µg/mL
[13]; 6000 nmol/kg
  Plasma concentration 24 hours following last injection of repeat dosing regimen (Day 33): 493.60 µg/mL
